assay: yeast display, Sf9 membrane polyspecificity reagent, FACS + sequencing; frameworks hold sequencing errors
In short: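 A nanobody's polyreactivity label depends on the gate it was sorted from. Yeast display cells were stained with 10% biotinylated, detergent-solubilized Sf9 membrane reagent for 1 hour at 4 °C, enriched on streptavidin microbeads and sorted by FACS. The low and high (top ~1%) gates were set on anti-HA fluorescence for expression and streptavidin fluorescence for reagent binding.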

Row | Sequence | polyreactivity (PSR sort gate)
1 | QVQLVESGGGLVQAGGSLRLSCAASGRIIGYNAMGWYRQAPGKERELVASIRYSGGSTYYADSVKGRFTISRDNAKNTVYLQMNSLKPEDTAVYYCATRVTYRRRFDYWGQGTQVTVSS | high polyreactivity
2 | QVQLVESGGGLVQAGGSLRLSCAASGRIIKPYAMGWYRQAPGKERELVAAISQSGGRTYYADSVKGRFTISRDNAKNTVYLQMNSLKPEDTAVYYCATRYVSSFGLHAQVWSYYYWGQGTQVTVSS | high polyreactivity
3 | QVQLVESGGGLVQAGGSLRLSCAASGRIINYNVMGWYRQAPRKEMELVAAITRGGSTYYADSVKVRFTISRDNAKNTVYLQMNILKPEDTEVYYCSADTARRPRSYYYWGQGTQVTVSS | low polyreactivity
4 | QVQLVESGGGLVQAGGSLRLSCAASGRIIPYNTMGWYRQAPGKERELVAAISQSDTGTHYADSVKGRFTISRDNAKNTVYLQMNSLKPEDTAVYYCAVDWGYSDDVPYEYWGQGTQVTVSS | low polyreactivity
5 | QVQLVESGGGLVQAGGSLRLSCAASGRIIRGYVMGWYRQAPRKEREMVAITIGAGRTYYADSVKGRFTISRDNAKNTVYLQMNSLIPEDTAVYYCAADTYSTSGYYYWGQGTQVTVSS | low polyreactivity
6 | QVQLVESGGGLVQAGGSLRLSCAASGRIIRKNTMGWYRQAPGKERELVAAIRWSTTSTYYADSVKGRFTISRDNAKNTVYLQMHSLKPEDTAVYYCAARRRDSYGNIYDYWGQGTQVTVSS | high polyreactivity
7 | QVQLVESGGGLVQAGGSLRLSCAASGRIIRWNAMGWYRQAPGKERELVAAITYSSGSTYYADSVKGRFTISRDNAKNTVYLQLNSLKPEDTAVYYCAAYSYGWDYSYDYWGQGTQVNVSS | low polyreactivity
8 | QVQLVESGGGLVQAGGSLRLSCAASGRIISAYAMGWYRQAPGKERELVAAITGSGGSTYYADTVKGRFTISRDNAKKTVYLQMNSRKPEDTAVYYCAAKIDYPDARYFPYRYYYWGQGTQVTVSS | high polyreactivity
9 | QVQLVESGGGLVQAGGSLRLSCAASGRIISRYAMGWYRQAPGKERELVAAISRRGGSTYYADSVKGRFTISRDNAKKTVYLQMNSLKPEDTAVYYCNADTGNRGYDYWGQGTQVTVSS | high polyreactivity
10 | QVQLVESGGGLVQAGGSLRLSCAASGRIISYYAMRWYRQAPGKERELVAAITSAGGTNYADSVKARFTISRDNAKNTVYLQMNSLKPEDTAVYYCAADLYDWPLAWWEYFYWGQGTQVTVSS | low polyreactivity
11 | QVQLVESGGGLVQAGGSLRLSCAASGRIIVDNAMGWYRQAPGKERELVAAITNGGSTSYADSVKGRFTISRDNAKNTVYLQMNSLKPEDTAVYYCNADEDLRGYDYWGQGTQVTVSS | low polyreactivity
12 | QVQLVESGGGLVQAGGSLRLSCAASGRIIVLYAMGWSRQAPGKERELVASIRSGGSTNYADSVKGRFTISRDNAKNTVYLQMNSLKPEETAVYYCAARPDHKRYDYWGQGTQVTVSS | low polyreactivity
13 | QVQLVESGGGLVQAGGSLRLSCAASGRIIYDKAMGWYRQAPGKERELVAAISRSGRTYYADSVKGRFTISRDNAKNTVYLQMNSLKPEDSAVYYCNARTLTVLEFDYWGQGTQVTVSS | low polyreactivity
14 | QVQLVESGGGLVQAGGSLRLSCAASGRIIYENAMGWYRQAPGKEREFVAAITGSGGSTYYADSVKGRFTISRDNAKNTVYLQMISLKPEDTEVYYCAAPLSSYWVYIVRYGYDYWGQGTQVTVSS | low polyreactivity
15 | QVQLVESGGGLVQAGGSLRLSCAASGRIIYGYAMGWYRQEPGKERELVAAITATYYGDSVKGRFTISRDNAKNTVYLQMNSLKPEDTAVYYCNAYLCPKQPLSPPDPTFEGGYWGQCTQVTVSS | low polyreactivity
16 | QVQLVESGGGLVQAGGSLRLSCAASGRIIYNYAMGWYRQAPGKERELVAAITRSGGSTYYADSVKGRFTISRDNAKNTVYLQMNSLKPEDTAVYYCNATRGFGPPYFYWGQGTQVTVSS | high polyreactivity
17 | QVQLVESGGGLVQAGGSLRLSCAASGRIIYPYVMGWYRQAHGKERELVAAITRSGDRTYYADSVKGRFTISRDNAKNTVYLQMNSLKPEDTAVYYCAATNVRGVYYWGQGTQVTVSS | high polyreactivity
18 | QVQLVESGGGLVQAGGSLRLSCAASGRIIYYNAMGWYRQAPGKERDLVARISSGGSTNYADSVKGRFTFSRDNAKNTVYLQMISLKPEDTAGDYCAVAKGGLAWGVGRAGRYDYWGQGTQVTLSS | low polyreactivity
19 | QVQLVESGGGLVQAGGSLRLSCAASGRILDINTMRGYRHPPGKERELVAAITWSGVSTYYADSVKGRFTISRDNAKNTVYLQMNSLKPEDTAVYYCAARPYYTWRYLPTNSGDYWGQGTQETVSS | low polyreactivity
20 | QVQLVESGGGLVQAGGSLRLSCAASGRILDYNAMGWYRPAPGKERELVAAITRRGGSTYYADSVKGRFTISRDNAKNTVYLQMNSLKPEDTAVYYCNARWSTTAHTRFGYWGQGTQVTVSS | low polyreactivity
21 | QVQLVESGGGLVQAGGSLRLSCAASGRILDYNAMGWYRQAPGKERELVAAITYTGGDTYYADSVKGRFTISRDNAKNTVYLQMNSLKPEDTAVYYCSADFGPYYRFDYWGQGTQVTVSS | low polyreactivity

Row | Sequence | polyreactivity (PSR sort gate)
22 | QVQLVESGGGLVQAGGSLRLSCAASGRILFGYAMGWYRQAPGKERELVADITSTGSTNYADSVKGRFTISRDNAKNTVYLQMNSLKPEDTAVYYCNARRESYYQRYRVDYWGQGTQVNVSS | low polyreactivity
23 | QVQLVESGGGLVQAGGSLRLSCAASGRILFRYGMGWYRQAPGKERELVARISWSGGNTHYADSVKGRFTISRDNAKNTVYLQMNSLKPDDTAVYYCNAYYTYWYPRYDYWGQGTQVTVSS | low polyreactivity
24 | QVQLVESGGGLVQAGGSLRLSCAASGRILGDNVMGWYRQAPGKERELVAAISSGSGSTYYADSVKGRFTISRDNAKNTVYLQMNSLKPEDTAVYYCAAGPYIYPRYDYWGQGTQVTVSS | low polyreactivity
25 | QVQLVESGGGLVQAGGSLRLSCAASGRILGDYAMGWYRQAPGKEREFVAASDYNGGSTNYADSVKGRFTISRDNAKNTVYLQMNSLKPEETAVYYCAAPGFPSRNGFGYWGQGTQVTVSS | low polyreactivity
26 | QVQLVESGGGLVQAGGSLRLSCAASGRILGKNAMGWYRQAPRKERELVAAISGRGDRTHYADSVKGRFTISRDNAKNTVYLHMNSLKPEDTAVYYCAKDHHPPAKGQSVSLGYDYWGQGTQVTVSS | low polyreactivity
27 | QVQLVESGGGLVQAGGSLRLSCAASGRILHANAMGWYRQAPGKERELVAAITGRGGSTYYADSVKGRFTISRDNAKITVYLQMNSLKPEDTAVYYCAARVKQAGYRMDYWVQGTQVTVSS | high polyreactivity
28 | QVQLVESGGGLVQAGGSLRLSCAASGRILHGYAMGWYRQAPGKERELVAAITSSGGRTYYADSVKGRFTISRDNAKNTVYLQMNSLKPEDTAVYYCAADRPAYRTGDSKYDYWGQGTQVTVSS | low polyreactivity
29 | QVQLVESGGGLVQAGGSLRLSCAASGRILIRNAMGWYRQAPGKERELVAAINRGGGSTYYADSVKGRFTISRDNAKNTVYLQMNSLKPEDTAVYYCAADRKAGYSRVDGDYWGQGTQVTVSS | low polyreactivity
30 | QVQLVESGGGLVQAGGSLRLSCAASGRILIWYAMGWYRQAPGKERELVAAINWSGSSTSYADSVKGRFTISRDNAKNTVYLQMNSLKPEDTAVYYCAAGRLTTYTPGNRYYYWGQGTQVTVSS | high polyreactivity
31 | QVQLVESGGGLVQAGGSLRLSCAASGRILKYNALGWYRQAPGKERELVAAISYRGGSTYYADSVKGRFTISRDNAKNTVYLQMNSLKPEDTAVYYCNAGGGILNGPLFDYWGQGTQVTVSS | low polyreactivity
32 | QVQLVESGGGLVQAGGSLRLSCAASGRILLHYAMGWYRQAPGKERELVAAITSTGGTTYYADSVKGRFTISRDYAKNTFYLQMNSLKPEDTAVYYCAAKRQDSWGGTYGYWGQGTQVTVSS | low polyreactivity
33 | QVQLVESGGGLVQAGGSLRLSCAASGRILLTYAMGWYRPAPGKERELVAAISSDSRTYYADSVKGRFTISRDNAQNTVYLQMNSLKPEDTAVYYCVRRRYKYDYWGQGTQVTVSS | low polyreactivity
34 | QVQLVESGGGLVQAGGSLRLSCAASGRILLTYAMGWYRQAPGKERELVAAISSDSRTYYADSVKGRFTISRDNAKNTVYLQMNSLKPEDTAVYYCVRRRYKYDYWGQGTQVTVSS | low polyreactivity
35 | QVQLVESGGGLVQAGGSLRLSCAASGRILPLYAMGWYRQAPGKDRELVALIDSGGSTNYADSVKGRFTISRDNAKNTVYLQMNSLKPEDTAVYYCAAVVTAQAYAYFTYGYDYWGQGTQVTVSS | low polyreactivity
36 | QVQLVESGGGLVQAGGSLRLSCAASGRILPLYAMGWYRQAPGKERELVARIDSGGSTNYADSVKGRFTISRDNAKNTVYLQMNSLKPEDTAVYYCAAVVTAQAYAYFTYGYDYWGQGTQVTVSS | low polyreactivity
37 | QVQLVESGGGLVQAGGSLRLSCAASGRILPRNAMGRYRQAPGKEREVVAGIYSDGSTNYADSVKGRFTISRDNAKNTVYLQMKSLKPEETAVYYCAKQFSSYQYFIILISPGDYWGQGTQVTVSS | low polyreactivity
38 | QVQLVESGGGLVQAGGSLRLSCAASGRILPSNAMGWYRQAPGKERELVAGITSGGSTDYADSVKGRFTISRDNAKNTVFLQMNSLKPEDTAVYYCNKPFPYYPDGPNGYDYWGQGTQVTVSS | low polyreactivity
39 | QVQLVESGGGLVQAGGSLRLSCAASGRILPVYAMGWYRQAPGKERELVAAINDSGTNTNYADSVKGRFTISRDNAKNTVYLHMNSLKPEDTAVYYCAASSGPRQGYSYRPHKSYGSWGQGTQVTVSS | low polyreactivity
40 | QVQLVESGGGLVQAGGSLRLSCAASGRILPYYAMGWYRQAPGKERELVAAITSGGSTYYADSVKGRFTISRDNAKNTVSLQMNSLKPEDTAVYYCATDVDKSLYDYWGQGTQVTVSS | low polyreactivity
41 | QVQLVESGGGLVQAGGSLRLSCAASGRILQFNAMGWYRQATGKERELVAAISTSGGRTYYADSVKGRFTISRDNAKNTVYLQMISLKPEDTAVYDCNAVAYKLMGYWGQGTQVTVSS | high polyreactivity
